Source: patent US7049289B1, “Labelled glutamine and lysine analogues” (Amersham PLC, priority 1998, dated 2006)
Where two headings read alike, the source gives them in different places. Where a SMILES comes first, the peptide text is derived from it. The star is where a group is joined. X1 = CC(=NO)C(C)(C)NCC(C)(CNC(C)(C)C(C)=NO)CN*; Cbz = O=C(OCc1ccccc1)*

What was measured:
[1] = human, plasma, 2 h
Protocol: (§1) To a portion of compound (50 μl, 10 MBq/ml) was added an equal volume of plasma (rat or human) or saline. The mixtures were incubated at 37° C. and the stability measured by HPLC (system C) at 0, 30 and 120 minutes. The saline dilution acted as a control.

[2] = rat, plasma, 2 h
Protocol: as §1

[3] = biological target: T1, fibrin (in vitro human plasma clot) (Homo sapiens, UniProt P02671+P02675+P02679); assay: Incorporation into human plasma clots in vitro; type: biochemical; settings: for % specific uptake: % retained (with thrombin) - % retained (no thrombin); for % retained (no thrombin): control without thrombin and calcium chloride (non-specific binding); for % retained (with thrombin): human plasma clot, 60 minutes, ca. 20° C.
T1 construct: about 400 μl of human plasma containing the radiolabelled substrate; from tissue; host or cells: human plasma, clotted in vitro with added thrombin and calcium chloride
T1 sequence (P02671 20-644 isoform P02671-2 limits assumed): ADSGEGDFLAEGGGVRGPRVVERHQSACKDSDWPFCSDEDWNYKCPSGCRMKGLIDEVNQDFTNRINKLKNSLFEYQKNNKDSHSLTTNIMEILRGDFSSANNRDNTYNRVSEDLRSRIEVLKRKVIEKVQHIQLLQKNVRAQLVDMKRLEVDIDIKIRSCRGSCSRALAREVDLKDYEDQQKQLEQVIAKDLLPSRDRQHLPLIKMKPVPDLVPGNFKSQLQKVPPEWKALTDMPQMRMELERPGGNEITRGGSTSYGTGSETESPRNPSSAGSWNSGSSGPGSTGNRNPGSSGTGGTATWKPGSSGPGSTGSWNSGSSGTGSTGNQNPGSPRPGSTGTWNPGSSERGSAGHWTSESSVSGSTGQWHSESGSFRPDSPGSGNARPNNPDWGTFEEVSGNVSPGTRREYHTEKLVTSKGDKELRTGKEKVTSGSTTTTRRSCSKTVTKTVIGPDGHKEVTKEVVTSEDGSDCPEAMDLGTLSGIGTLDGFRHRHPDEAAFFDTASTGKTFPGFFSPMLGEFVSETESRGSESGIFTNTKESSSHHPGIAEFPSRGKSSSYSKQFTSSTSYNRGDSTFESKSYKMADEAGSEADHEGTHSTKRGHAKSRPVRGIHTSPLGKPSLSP
T1 sequence (P02675 45-491 limits assumed): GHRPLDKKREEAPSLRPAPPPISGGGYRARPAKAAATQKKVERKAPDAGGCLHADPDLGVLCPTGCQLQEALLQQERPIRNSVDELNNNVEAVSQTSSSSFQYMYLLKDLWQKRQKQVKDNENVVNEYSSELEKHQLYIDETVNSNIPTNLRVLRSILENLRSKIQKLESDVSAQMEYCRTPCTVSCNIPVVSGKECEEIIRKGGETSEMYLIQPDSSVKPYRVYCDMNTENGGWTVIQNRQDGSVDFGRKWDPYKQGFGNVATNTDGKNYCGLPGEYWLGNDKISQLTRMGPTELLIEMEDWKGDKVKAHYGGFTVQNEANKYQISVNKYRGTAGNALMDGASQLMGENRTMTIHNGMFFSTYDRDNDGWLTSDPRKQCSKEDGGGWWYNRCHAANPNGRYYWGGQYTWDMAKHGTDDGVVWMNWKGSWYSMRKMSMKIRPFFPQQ
T1 sequence (P02679 27-437 isoform P02679-2 limits assumed): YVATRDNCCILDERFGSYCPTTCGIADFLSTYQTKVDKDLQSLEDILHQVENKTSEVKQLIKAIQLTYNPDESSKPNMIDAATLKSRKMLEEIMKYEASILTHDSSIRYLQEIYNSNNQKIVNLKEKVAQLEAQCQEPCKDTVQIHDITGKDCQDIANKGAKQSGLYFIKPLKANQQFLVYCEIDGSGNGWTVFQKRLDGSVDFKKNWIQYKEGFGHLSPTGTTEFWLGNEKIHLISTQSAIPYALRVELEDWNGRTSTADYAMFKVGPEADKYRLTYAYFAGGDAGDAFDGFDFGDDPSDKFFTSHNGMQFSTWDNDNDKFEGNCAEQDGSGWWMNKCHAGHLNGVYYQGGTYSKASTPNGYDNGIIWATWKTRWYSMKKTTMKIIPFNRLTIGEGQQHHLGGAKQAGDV
Procedure, shortened: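 Human plasma containing radiolabelled substrate (typically 10 kBq/ml) clotted with thrombin in Tris-saline pH 7.5 with 4 mM CaCl2, 60 min at ca. 20 °C, then stopped with cold EDTA. Clots collected on nitrocellulose filters and washed; incorporation is filter-retained radioactivity fraction minus non-specific binding from thrombin/calcium-free controls.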

[4] = set-up: species or system rat (Male Wistar); settings: rat, in vivo; for % ID Blood / % ID GI Tract / % ID Heart / % ID Kidney / % ID Liver / % ID Lung / % ID Muscle / % ID Urine: iv
Protocol: The resolution of a clot image is dependant on the combination of rate of incorporation of the radiopharmaceutical and its blood/tissues clearance rate. For this reason the biodistribution of several compounds has been determined in rats. Male Wistar (100–150 g) rats were injected i.v. with 0.1–0.2 ml of radiolabelled tracer solution (8 MBq/ml) and dissected at different times post-injection. The % ID in each of the selected tissues was measured. Some animals were kept in metabolism cages to be able to determine the % ID excreted in urine and faeces. The dissection times used for the agent were 15, 30, 60, 240 min. Data are shown as mean of % ID (n=3).

[5] = Incorporation into clots induced in a rat model (rat inferior vena cava model); type: in vivo, rat (Male Wistar); settings: for % id/g (clot) / Rel. Conc. (cpm/g of clot by dose/g animal): sacrificed after 60 min
Procedure, shortened: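 Male Wistar rats (250–350 g) under 15% urethane anaesthesia, with the vena cava isolated by laparotomy. Compounds given 5 min (fresh clot) or 60 min (aged clot) after clot induction; clot, blood, lung and heart removed 60 min later, weighed and counted. Uptake expressed as cpm/g clot per dose/g animal and as clot-to-background tissue ratio.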

[6] = In vitro plasma stability (rat plasma)
Protocol: as §1

[7] = In vitro plasma stability (human plasma)
Protocol: as §1

[8] = Imaging of clots induced in a rat model (jugular vein); type: in vivo, rat (male Wistar); settings: planar gamma camera images 15–180 min p.i.
Protocol: Clots were induced in male Wistar rats (250–350 g) as described in Example 17, with the exception that for these experiments the platinum wire was located in the jugular vein. The compounds were injected 60 min […] and planar images acquired between 15–180 min p.i. A Park medical Isocam I gamma camera was used for these experiments, 300K or 150K counts were of the thorax were collected using a LEUHR or a LEPH collimator. Clots were visualised from 15 min p.i.

[9] = ^125I radiolabelled; cited from earlier work
[10] = Aged Clots: injected 60 min post-induction
[11] = Fresh Clots: injected 5 min post-induction

In the case of “Ac-NQEQVSPYTLLKG-Pn44 (also: 99mTc complex) [^99mTc-Cmpd 3]”, the “% intact at 120 mins” value [1] is reported as over 90%, the “% intact at 120 mins” value [2] is reported as over 90% and the “% specific uptake” value [3] is reported as 39.0%. The “% retained (no thrombin)” value [3] was 0.3%, the “% retained (with thrombin)” value [3] was 39.3% and the “t1/2 (blood clearance, biological half life)” value [4] was 2 h. For the same compound, the “% ID Blood” value ([4]; 0.25 h) was 5.3 % ID, the “% ID GI Tract” value ([4]; 0.25 h) was 13.5 % ID and the “% ID Heart” value ([4]; 0.25 h) was 0.2 % ID. For the same compound, the “% ID Kidney” value ([4]; 0.25 h) was 7.6 % ID, the “% ID Liver” value ([4]; 0.25 h) was 6.2 % ID and the “% ID Lung” value ([4]; 0.25 h) was 0.7 % ID. For the same compound, the “% ID Muscle” value ([4]; 0.25 h) was 14.7 % ID, the “% ID Urine” value ([4]; 0.25 h) was 14.9 % ID and the “% ID Blood” value ([4]; 0.5 h) was 1.8 % ID. For the same compound, the “% ID GI Tract” value ([4]; 0.5 h) was 15.1 % ID, the “% ID Heart” value ([4]; 0.5 h) was 0.1 % ID and the “% ID Kidney” value ([4]; 0.5 h) was 4.9 % ID. The “% ID Liver” value ([4]; 0.5 h) was 4.1 % ID, the “% ID Lung” value ([4]; 0.5 h) was 0.4 % ID and the “% ID Muscle” value ([4]; 0.5 h) was 10.4 % ID. For the same compound, the “% ID Urine” value ([4]; 0.5 h) was 34.3 % ID, the “% ID Blood” value ([4]; 1 h) was 1.6 % ID and the “% ID GI Tract” value ([4]; 1 h) was 18.0 % ID. For the same compound, the “% ID Heart” value ([4]; 1 h) was 0.1 % ID, the “% ID Kidney” value ([4]; 1 h) was 4.6 % ID and the “% ID Liver” value ([4]; 1 h) was 4.0 % ID. The “% ID Lung” value ([4]; 1 h) was 0.3 % ID, the “% ID Muscle” value ([4]; 1 h) was 5.1 % ID and the “% ID Urine” value ([4]; 1 h) was 37.0 % ID. For the same compound, the “% ID Blood” value ([4]; 4 h) was 0.6 % ID, the “% ID GI Tract” value ([4]; 4 h) was 20.7 % ID and the “% ID Heart” value ([4]; 4 h) was 0.04 % ID. For the same compound, the “% ID Kidney” value ([4]; 4 h) was 3.4 % ID, the “% ID Liver” value ([4]; 4 h) was 3.0 % ID and the “% ID Lung” value ([4]; 4 h) was 0.3 % ID. The “% ID Muscle” value ([4]; 4 h) was 2.9 % ID, the “% ID Urine” value ([4]; 4 h) was 42.0 % ID and the Clot/blood ([5]; Aged Clots) was 8. The Clot/heart ([5]; Aged Clots) was 23, the Clot/liver ([5]; Aged Clots) was 5 and the Clot/lung ([5]; Aged Clots) was 11. For the same compound, the “% id/g (clot)” value [5, 10] was 2.1 ± 0.8 % id/g, the “Rel. Conc. (cpm/g of clot by dose/g animal)” value [5, 10] was 6.2 ± 2.2 and the Clot/blood ([5]; Fresh Clots) was 10. The Clot/heart ([5]; Fresh Clots) was 17, the Clot/liver ([5]; Fresh Clots) was 6 and the Clot/lung ([5]; Fresh Clots) was 8. The “% id/g (clot)” value [5, 11] was 1.4 ± 0.4 % id/g and the “Rel. Conc. (cpm/g of clot by dose/g animal)” value [5, 11] was 5.1 ± 1.2.
With `CC(=NO)C(C)(C)NCC(C)(CNC(=O)CNC(=O)[C@H](CCCCN)NC(=O)[C@H](CC(C)C)NC(=O)[C@H](CC(C)C)NC(=O)[C@@H](NC(=O)[C@H](Cc1ccc(O)cc1)NC(=O)[C@@H]1CCCN1C(=O)[C@H](CO)NC(=O)[C@@H](NC(=O)[C@H](CCC(N)=O)NC(=O)[C@H](CCC(=O)O)NC(=O)[C@H](CCC(N)=O)NC(=O)[C@H](CC(N)=O)NC(=O)OCc1ccccc1)C(C)C)[C@@H](C)O)CNC(C)(C)C(C)=NO` (some centres unmarked) [^99mTc-Cmpd 7, metal not drawn] (Cbz-NQEQVSPYTLLKG-X1; C-terminus assumed) the remaining at 2 h [6] was over 90%, the “% specific uptake” value [3] was 40.6% and the “% retained (no thrombin)” value [3] was 0.7%. For the same compound, the “% retained (with thrombin)” value [3] was 41.3%, the Clot/blood ([5]; Aged Clots) was 9 and the Clot/heart ([5]; Aged Clots) was 15. The Clot/liver ([5]; Aged Clots) was 3, the Clot/lung ([5]; Aged Clots) was 7 and the “% id/g (clot)” value [5, 10] was 2.1 ± 0.3 % id/g. For the same compound, the “Rel. Conc. (cpm/g of clot by dose/g animal)” value [5, 10] was 6.5 ± 1.3, the Clot/blood ([5]; Fresh Clots) was 15 and the Clot/heart ([5]; Fresh Clots) was 21. For the same compound, the Clot/liver ([5]; Fresh Clots) was 6, the Clot/lung ([5]; Fresh Clots) was 11 and the “% id/g (clot)” value [5, 11] was 4.8 ± 1.3 % id/g. The “Rel. Conc. (cpm/g of clot by dose/g animal)” value [5, 11] was 14.5 ± 4.4 and the remaining at 2 h [7] was over 90%.
For “Ac-NQEQVSPYTLLKG-Pn216 (also: 99mTc complex) [^99mTc-Cmpd 5]”, the “% intact at 120 mins” value [1] was over 90%, the “suitability for imaging clots (in words)” value [8] was “suitable for imaging clots” and the “% intact at 120 mins” value [2] was over 90%. For the same compound, the “% specific uptake” value [3] was 35.3%, the “% retained (no thrombin)” value [3] was 0.2% and the “% retained (with thrombin)” value [3] was 35.5%. It also gave a Clot/blood ([5]; Aged Clots) of 13, a Clot/heart ([5]; Aged Clots) of 33 and a Clot/liver ([5]; Aged Clots) of 24. For the same compound, the Clot/lung ([5]; Aged Clots) was 31, the “% id/g (clot)” value [5, 10] was 3.6 ± 1.7 % id/g and the “Rel. Conc. (cpm/g of clot by dose/g animal)” value [5, 10] was 11 ± 5.1. For the same compound, the Clot/blood ([5]; Fresh Clots) was 21, the Clot/heart ([5]; Fresh Clots) was 51 and the Clot/liver ([5]; Fresh Clots) was 43. The Clot/lung ([5]; Fresh Clots) was 23, the “% id/g (clot)” value [5, 11] was 6.0 ± 2.1 % id/g and the “Rel. Conc. (cpm/g of clot by dose/g animal)” value [5, 11] was 16 ± 5.8.
In the case of “NQEQVSPYTLTLLK [synthetic analogue of the alpha-2 antiplasmin N-terminal peptide, WO 89/00051]”, the “uptake in thrombin clots in vitro (in words)” value [9] is given as “taken up in thrombin clots in vitro”.
